Source: paper doi:10.1101/2025.02.16.638571 (bioRxiv, 2025)

B1: mAb S2B10 (antibody, V domains shown)
VH: QMQLQESGPGLVKPSQSLSLTCTVTGYSITSDYAWNWIRQFPRNKLEWMGFITYSGSTSYNPSLKSRISLTRDTSKNQFFLQLSSVTTEDTATYYCARSGANWDWFAYWGQGTLVTVSA
VL: DIQMTQSPASLAVSLGQRATISCRASESVDNYGNSFMHWYQQKPGQPPKLLIYRASKLESGIPARFSGSGSRTDFTLTINPVEADDVATYHCQQSNEDPWTFGGGTKLEIK
B2: mAb S1E2 (antibody, V domains shown)
VH: QMQLQESGPGLVKPSQSLSLTCSVTGYSITSGYYWNWIRQFSGNKLEWMGYINHDGSKNYNPSLKNRISITRDTSKNQFFLKLNSVTTEDTATYYCARDYGSYYYPMDYWGQGTSVTVSS
VL: EIVLTQSPPIMSASPGEKVTITCSASSSVTFMHWFQQKPGTSPKLWIFSTSNLASGVPARFSGSGSGTSYSLTISRMEAEDAATYYCQQRSSYPFTFGSGTKLEIK
B3: mAb LN1F9 (antibody, V domains shown)
VH: EVKLVESGGGLVKPGGSLKLSCAASGFSFRNYAMSWVRQSPEKRLEWVAEVSSGGGYTYYPDTVTGRFTISRDNAKNILYLEMSSLRSEDTAMYYCTRDPDSSGYLAWFAYWGQGTLVTVSA
VL: DILLTQSPASLSASVGETVTITCRASENINSYLAWYQQKQGKSPQLLVYNAKTLAEGVPSRFSGSGSDTQFSLKINTLQPEDFGTYYCQHHSGTPYTFGGGTKLEIK
B4: mAb LN3D3 (antibody, V domains shown)
VH: EVKLEESGPELVKPGASVKMSCKASGYTFTNYVMHWVKQKPGQGLEWIGYVNPYNDGTQYNEKFRDKATLTSDKSSSTVYMELNSLTSEDSAVYYCTRGDYPYWVFEVWGAGTTVTVSS
VL: EIQMTQSPATLSVTPGDSVSLSCRASQSISNNLHWYQQKSHESPRLLIKYASQSISGIPSRFSGSGSGTDFTLSINNLETEDFGMYFCQHSDSWPFTFGSGTKLEIK

What follows are binders tested against full-length NiVM G on transfected cells (Nipah virus, Malaysia strain (NiVM), UniProt Q9IH62) (assay: flow cytometry on cells).
B1: binds.
B2: binds.
B3: binds.
B4: binds.
